# Reference: publication PMC11952958, “Integrative structural analysis of NF45–NF90 heterodimers reveals architectural rearrangements and oligomerization on binding dsRNA”
# B1: 25-bp GC-rich dsRNA (CLMS) (dsRNA)
# RNA 1: GCCGCGGAGGCCCCGCCGUGGGCCC
# RNA 2: GGGCCCACGGCGGGGCCUCCGCGGC
# B2: 18-bp 2'-fluoro dsRNA (EDC) (XNA)
# RNA 1: UCACUUUCAUAAUGCUGG
# RNA 2: CCAGCAUUAUGAAAGUGA
# modifications: uniform 2'-fluoro (printed beside the top strand; Methods call the duplex 2'-fluorinated)
# B3: 54-bp dsRNA (SAXS) (dsRNA)
# RNA 1: UCACUUUCAUAAUGCUGGUCACUUUCAUAAUGCUGGUCACUUUCAUAAUGCUGG
# RNA 2: CCAGCAUUAUGAAAGUGACCAGCAUUAUGAAAGUGACCAGCAUUAUGAAAGUGA
# B4: 25-bp dsRNA (SAXS) (dsRNA)
# RNA 1: UCACUUUCAUAAUGCUGGUCACUUU
# RNA 2: CCAGCAUUAUGAAAGUGACCAGCAU
# Experiments:
# NF90long;NF45 [1] = target: T1, NF90long;NF45 (Mus musculus;Homo sapiens, UniProt Q9Z1X4;Q12905 1-591;1-390, |); test: quantitative EDC CLMS; 18-bp complex formation: 30 min on ice, SEC in 20 mM HEPES pH 7.5, 150 mM NaCl, 1 mM DTT; mass photometry at 10-50 nM protein; SAXS and EM buffers not in the material; settings: protein: recombinant;recombinant; tags: C-terminal 6xHis (non-cleavable);N-terminal GST, removed with 3C protease; copies: 1;1; blunt
# NF90long;NF45 [2] = target: T1, NF90long;NF45; test: SEC and EDC cross-linking (SDS-PAGE, CLMS); protein:RNA 1:1 and 2:1; 18-bp complex formation: 30 min on ice, SEC in 20 mM HEPES pH 7.5, 150 mM NaCl, 1 mM DTT; mass photometry at 10-50 nM protein; SAXS and EM buffers not in the material; settings: protein: recombinant;recombinant; tags: C-terminal 6xHis (non-cleavable);N-terminal GST, removed with 3C protease; copies: 1;1; blunt
# NF90long;NF45 [3] = target: T1, NF90long;NF45; test: SEC-SAXS; mass photometry; not more than 4 heterodimers per RNA (SAXS); up to 3 by mass photometry; 18-bp complex formation: 30 min on ice, SEC in 20 mM HEPES pH 7.5, 150 mM NaCl, 1 mM DTT; mass photometry at 10-50 nM protein; SAXS and EM buffers not in the material; settings: protein: recombinant;recombinant; tags: C-terminal 6xHis (non-cleavable);N-terminal GST, removed with 3C protease; copies: 1;1; blunt
# NF90long;NF45 [4] = target: T1, NF90long;NF45; test: SEC-SAXS; mass photometry; protein:RNA 2:1 and 4:1; RNA saturated at 4:1; 18-bp complex formation: 30 min on ice, SEC in 20 mM HEPES pH 7.5, 150 mM NaCl, 1 mM DTT; mass photometry at 10-50 nM protein; SAXS and EM buffers not in the material; settings: protein: recombinant;recombinant; tags: C-terminal 6xHis (non-cleavable);N-terminal GST, removed with 3C protease; copies: 1;1; S13 is labelled 3'-5' but pairs only if read 5'-3' (18 bp, 7-nt 3' tails)
binder,measurement,setting,value
B1,binding result,NF90long;NF45 [1],binds
B2,binding result,NF90long;NF45 [2],binds
B3,binding result,NF90long;NF45 [3],binds
B4,binding result,NF90long;NF45 [4],binds
